The assay deals with T1, RAD51 WT protein phosphorylated in vitro by c-MET kinase (human).
T1 chain: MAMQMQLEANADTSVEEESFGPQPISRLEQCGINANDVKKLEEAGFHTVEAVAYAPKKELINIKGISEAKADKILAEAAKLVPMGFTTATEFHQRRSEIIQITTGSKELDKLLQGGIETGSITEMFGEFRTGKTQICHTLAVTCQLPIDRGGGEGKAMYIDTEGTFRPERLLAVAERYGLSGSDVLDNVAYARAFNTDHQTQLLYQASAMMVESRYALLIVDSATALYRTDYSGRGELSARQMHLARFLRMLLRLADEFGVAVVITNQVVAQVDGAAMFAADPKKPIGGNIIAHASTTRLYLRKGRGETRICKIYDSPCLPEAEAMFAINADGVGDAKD
Put plainly: cross-linking; RAD51 10 uM with ATP 2 mM, with or without kinase-active c-MET (0.1 uM) and PHA665752 (1 uM); 20 mM BS3, room temperature, 30 min, stopped with Tris 1 M pH 8.0; SDS-PAGE 10% and western blot with anti-RAD51. Particulars: remark: other sources report otherwise. (Immunoblotting shows a protein as a band on a membrane.)

B1: RAD51 WT protein phosphorylated in vitro by c-MET kinase (natural protein)
chain: MAMQMQLEANADTSVEEESFGPQPISRLEQCGINANDVKKLEEAGFHTVEAVAYAPKKELINIKGISEAKADKILAEAAKLVPMGFTTATEFHQRRSEIIQITTGSKELDKLLQGGIETGSITEMFGEFRTGKTQICHTLAVTCQLPIDRGGGEGKAMYIDTEGTFRPERLLAVAERYGLSGSDVLDNVAYARAFNTDHQTQLLYQASAMMVESRYALLIVDSATALYRTDYSGRGELSARQMHLARFLRMLLRLADEFGVAVVITNQVVAQVDGAAMFAADPKKPIGGNIIAHASTTRLYLRKGRGETRICKIYDSPCLPEAEAMFAINADGVGDAKD
modifications: here or on the partner: phosphotyrosine at Y159, Y191, Y205 and Y315 (sites the paper concludes for c-MET; extent at each site not stated); phosphotyrosine at Y159, Y191, Y205 and Y315 (sites the paper concludes for c-MET; extent at each site not stated)
For B1, the fold of multimer forms against non-phosphorylated RAD51 stood at 1.6 fold.

The values above are taken from publication PMC6468871.
